Assay results taken from doi:10.1101/2021.08.27.457910.

Key:
Sgo1_(1-130) (human) = Sgo1_(1-130) (human) (UniProt Q5FBB7); assay: ITC
Sgo1_(1-415) (human) [1] = target: Sgo1_(1-415) (human) (UniProt Q5FBB7); assay: mass photometry
Sgo1_(1-415) (human) [2] = target: Sgo1_(1-415) (human) (UniProt Q5FBB7); assay: ITC

Substance “CPC_(ISB10-221) (INCENP_(1-58), Survivin and Borealin_(10-221)) (from UniProt Q9NQS7 1-58; O15392 1-142; Q53HL2 10-221) (complex)” has a Kd (Sgo1_(1-130) (human)) of 163 nM.

“Sgo1_(1-415) (from UniProt Q5FBB7 1-415) (domain or fragment)” gave a stoichiometry N (Sgo1_(1-415) (human) [1]) of 2.

“CPC_(ISB10-280) (INCENP_(1-58), Survivin full length and Borealin_(10-280)) (from UniProt Q9NQS7 1-58; O15392 1-142; Q53HL2 10-280) (complex)” was tested, and the Kd (Sgo1_(1-130) (human)) was 57 nM, the Kd (Sgo1_(1-415) (human) [2]) was 53 nM and the dH (Sgo1_(1-415) (human) [2]) was -6.58 kcal/mol. It also gave a stoichiometry N (Sgo1_(1-415) (human) [2]) of 1.

“Survivin (from UniProt O15392 1-142) (natural protein)” was tested, and the Kd (Sgo1_(1-130) (human)) was 255 nM.
